Reference: patent publication US20190381086A1, “INHIBITION OF NEDDYLATION USING GLYCYL-tRNA SYNTHETASE INHIBITORS” (The Scripps Research Institute, priority 2015, published 2019)
Values belong to the molecule of their own block, whether it stands above or below them.

Target: T1, Ubc12^N8 (Homo sapiens, UniProt P61081+Q15843, C111S)
T1 construct: DEN1 which processes NEDD8 to its mature, 76-amino acid form; made in house; conjugate made enzymatically in vitro
Experiment: Biolayer interferometry, immobilized Ubc12^N8
Assay type: binding
Settings: for Kd: binding to immobilized Ubc12^N8
Experimental: V5-tagged GlyRS and Flag-tagged Ubc12-C111S genes were co-transfected to HEK293 cell for the assay. FIG. 3B: Strong binding of Ubc12^N8 to GlyRS as determined by biolayer interferometry. A.U. indicates Arbitrary Unit. Binding analysis to immobilized GST-GlyRS was carried out with the same concentration (62.5 nM) of NEDD8, Ubc12, or Ubc12^N8 at 30°. FIG. 3C: Biolayer interferometry analysis confirms that GlyRS binding to Ubc12^N8. Binding analysis to immobilized Ubc12^N8 was carried out with a range of concentrations of full-length (8.07 nM-129 nM) GlyRS. FIG. 3D: Structural model of the GlyRS-Ubc12^N8 interaction generated using Patchdock (a server for molecular docking). FIGS. 3E-G: Biolayer interferometry analysis confirms that F84-L93 and I232-M238 regions, but not Insertion 1, are important for GlyRS binding to Ubc12^N8. Binding analysis to immobilized Ubc12^N8 was carried out with a range of concentrations (1.25-20 μg/mL) of ΔF84-L93 (8.16-130 nM), ΔI232-M238 (8.13-130 nM), and Alnsertion 1 (62.5-125 nM) GlyRS. FIG. 3H: Over-expression of ΔI232-M238 GlyRS in HEK293 cells cannot promote NEDD8 conjugation of Ubc12. HEK293 cells were transfected with pcDNA6V5 vectors containing the indicated gene fragment with a V5-tag.
The conjugated Ubc12 was prepared by mixing APPBP1/UBA3 (2 μM), Ubc12 (C111S; the mutant would form a stable ester linkage to NEDD8) (70 μM), and His-SUMO-tagged NEDD8 (100 μM). The mixture was incubated at 25° C. for 16 h in 50 mM NaOAc pH 5.5, 50 mM NaCl, 1 mM MgCl2, and 2 mM ATP. Ubc12^N8 was then purified by gel filtration chromatography using a Superdex 200 column. The fractions containing only Ubc12^N8 were concentrated and used for the study. The purity of proteins was examined by SDS-PAGE to be above 95%.
The dissociation constants (Kd) were obtained with biolayer interferometry by using an Octet QK system (ForteBio, Menlo Park, Calif., USA). Samples or buffer were dispensed into 96-well plates (Millipore, Billerica, Mass.) at 200 μL per well. Operating temperature was maintained at 30° C. Proteins were diluted into kinetic buffer (PBS with 0.1% BSA and 0.002% Tween-20) and immobilized on either anti-GST or Ni-NTA sensor tips. The other proteins were diluted using the same buffer into a range of different concentrations. Assays with Ubc12^N8 were carried out using the acid kinetic buffer (50 mM NaOAc pH 5.5, 50 mM NaCl, 0.1% BSA, and 0.002% Tween-20). The raw data were processed by subtraction to reference cells and then aligned with baselines. The dissociation constants Kd were obtained by fitting the processed data using the 1:1 model in the Octet analysis software with R^2>0.99.
Indeed, GlyRS can bind to Ubc12^N8 in HEK293 cells as detected by co-immunoprecipitation (FIG. 3a). […] To quantify the difference, Ubc12^N8 was enzymatically made and purified, and its binding affinity to GlyRS was measured using biolayer interferometry. […] Therefore, it is possible that GlyRS enhances neddylation by protecting reaction intermediate Ubc12^N8.
Using the crystal structure of human GlyRS16 and of Ubc12N8 (adapted from its complex with substrate cullin and E3), a model was generated for the GlyRS-Ubc12^N8 interaction using the Patchdock algorithm (http://bioinfo3d.cs.tau.ac.il/PatchDock/). […]

T1 sequence (P61081 whole entry C111S): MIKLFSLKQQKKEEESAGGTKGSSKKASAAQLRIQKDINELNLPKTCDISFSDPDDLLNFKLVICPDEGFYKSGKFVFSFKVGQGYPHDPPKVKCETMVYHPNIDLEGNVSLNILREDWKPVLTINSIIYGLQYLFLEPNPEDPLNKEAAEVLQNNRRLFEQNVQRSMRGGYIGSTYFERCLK
T1 sequence (Q15843 1-76 limits assumed): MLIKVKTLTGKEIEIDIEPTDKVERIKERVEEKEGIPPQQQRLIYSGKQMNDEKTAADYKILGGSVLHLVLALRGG

B2: A84-93: GlyRS deletion mutant, F84-L93 replaced by GGG (protein)
chain: MDGAGAEEVLAPLRLAVRQQGDLVRKLKEDKAPQVDVDKAVAELKARKRVLEAKELALQPKDDIVDRAKMEDTLKRRFFYDQAGGGYDFGPVGCALKNNIIQTWRQHFIQEEQILEIDCTMLTPEPVLKTSGHVDKFADFMVKDVKNGECFRADHLLKAHLQKLMSDKKCSVEKKSEMESVLAQLDNYGQQELADLFVNYNVKSPITGNDLSPPVSFNLMFKTFIGPGGNMPGYLRPETAQGIFLNFKRLLEFNQGKLPFAAAQIGNSFRNEISPRSGLIRVREFTMAEIEHFVDPSEKDHPKFQNVADLHLYLYSAKAQVSGQSARKMRLGDAVEQGVINNTVLGYFIGRIYLYLTKVGISPDKLRFRQHMENEMAHYACDCWDAESKTSYGWIEIVGCADRSCYDLSCHARATKVPLVAEKPLKEPKTVNVVQFEPSKGAIGKAYKKDAKLVMEYLAICDECYITEMEMLLNEKGEFTIETEGKTFQLTKDMINVKRFQKTLYVEEVVPNVIEPSFGLGRIMYTVFEHTFHVREGDEQRTFFSFPAVVAPFKCSVLPLSQNQEFMPFVKELSEALTRHGVSHKVDDSSGSIGRRYARTDEIGVAFGVTIDFDTVNKTPHTATLRDRDSMRQIRAEISELPSIVQDLANGNITWADVEARYPLFEGQETGKKETIEE
Kd: 27 ± 0.4 nM | fold decrease of binding of GlyRS to Ubc12^N8 (versus full-length GlyRS): 9 fold

B4: A232-238: GlyRS deletion mutant, I232-M238 replaced by GG (protein)
chain: MDGAGAEEVLAPLRLAVRQQGDLVRKLKEDKAPQVDVDKAVAELKARKRVLEAKELALQPKDDIVDRAKMEDTLKRRFFYDQAFAIYGGVSGLYDFGPVGCALKNNIIQTWRQHFIQEEQILEIDCTMLTPEPVLKTSGHVDKFADFMVKDVKNGECFRADHLLKAHLQKLMSDKKCSVEKKSEMESVLAQLDNYGQQELADLFVNYNVKSPITGNDLSPPVSFNLMFKTFGGPGYLRPETAQGIFLNFKRLLEFNQGKLPFAAAQIGNSFRNEISPRSGLIRVREFTMAEIEHFVDPSEKDHPKFQNVADLHLYLYSAKAQVSGQSARKMRLGDAVEQGVINNTVLGYFIGRIYLYLTKVGISPDKLRFRQHMENEMAHYACDCWDAESKTSYGWIEIVGCADRSCYDLSCHARATKVPLVAEKPLKEPKTVNVVQFEPSKGAIGKAYKKDAKLVMEYLAICDECYITEMEMLLNEKGEFTIETEGKTFQLTKDMINVKRFQKTLYVEEVVPNVIEPSFGLGRIMYTVFEHTFHVREGDEQRTFFSFPAVVAPFKCSVLPLSQNQEFMPFVKELSEALTRHGVSHKVDDSSGSIGRRYARTDEIGVAFGVTIDFDTVNKTPHTATLRDRDSMRQIRAEISELPSIVQDLANGNITWADVEARYPLFEGQETGKKETIEE
binding of GlyRS to Ubc12^N8 (immobilized Ubc12^N8, FIG. 3f): abolished the binding completely

Continued, values first:

Kd: 3.21 ± 0.17 nM
B1: GlyRS: human Glycyl-tRNA synthetase, recombinant full-length protein (SEQ ID NO: 2) (protein, listed as Homo sapiens)
chain: MDGAGAEEVLAPLRLAVRQQGDLVRKLKEDKAPQVDVDKAVAELKARKRVLEAKELALQPKDDIVDRAKMEDTLKRRFFYDQAFAIYGGVSGLYDFGPVGCALKNNIIQTWRQHFIQEEQILEIDCTMLTPEPVLKTSGHVDKFADFMVKDVKNGECFRADHLLKAHLQKLMSDKKCSVEKKSEMESVLAQLDNYGQQELADLFVNYNVKSPITGNDLSPPVSFNLMFKTFIGPGGNMPGYLRPETAQGIFLNFKRLLEFNQGKLPFAAAQIGNSFRNEISPRSGLIRVREFTMAEIEHFVDPSEKDHPKFQNVADLHLYLYSAKAQVSGQSARKMRLGDAVEQGVINNTVLGYFIGRIYLYLTKVGISPDKLRFRQHMENEMAHYACDCWDAESKTSYGWIEIVGCADRSCYDLSCHARATKVPLVAEKPLKEPKTVNVVQFEPSKGAIGKAYKKDAKLVMEYLAICDECYITEMEMLLNEKGEFTIETEGKTFQLTKDMINVKRFQKTLYVEEVVPNVIEPSFGLGRIMYTVFEHTFHVREGDEQRTFFSFPAVVAPFKCSVLPLSQNQEFMPFVKELSEALTRHGVSHKVDDSSGSIGRRYARTDEIGVAFGVTIDFDTVNKTPHTATLRDRDSMRQIRAEISELPSIVQDLANGNITWADVEARYPLFEGQETGKKETIEE

Kd: 4.32 ± 0.12 nM
B3: Insertion 1: GlyRS with Insertion 1 deleted (F147-F224 replaced by GSGSGG) (protein)
chain: MDGAGAEEVLAPLRLAVRQQGDLVRKLKEDKAPQVDVDKAVAELKARKRVLEAKELALQPKDDIVDRAKMEDTLKRRFFYDQAFAIYGGVSGLYDFGPVGCALKNNIIQTWRQHFIQEEQILEIDCTMLTPEPVLKTSGHVDKFADGSGSGGNLMFKTFIGPGGNMPGYLRPETAQGIFLNFKRLLEFNQGKLPFAAAQIGNSFRNEISPRSGLIRVREFTMAEIEHFVDPSEKDHPKFQNVADLHLYLYSAKAQVSGQSARKMRLGDAVEQGVINNTVLGYFIGRIYLYLTKVGISPDKLRFRQHMENEMAHYACDCWDAESKTSYGWIEIVGCADRSCYDLSCHARATKVPLVAEKPLKEPKTVNVVQFEPSKGAIGKAYKKDAKLVMEYLAICDECYITEMEMLLNEKGEFTIETEGKTFQLTKDMINVKRFQKTLYVEEVVPNVIEPSFGLGRIMYTVFEHTFHVREGDEQRTFFSFPAVVAPFKCSVLPLSQNQEFMPFVKELSEALTRHGVSHKVDDSSGSIGRRYARTDEIGVAFGVTIDFDTVNKTPHTATLRDRDSMRQIRAEISELPSIVQDLANGNITWADVEARYPLFEGQETGKKETIEE
